# T1: CcmS-His (His-tagged CcmS from Nostoc sp. PCC 7120) (Nostoc sp. PCC 7120, UniProt A0ACD6B954 1-142, dye label on the His tag in the MST assays)
# T1 chain: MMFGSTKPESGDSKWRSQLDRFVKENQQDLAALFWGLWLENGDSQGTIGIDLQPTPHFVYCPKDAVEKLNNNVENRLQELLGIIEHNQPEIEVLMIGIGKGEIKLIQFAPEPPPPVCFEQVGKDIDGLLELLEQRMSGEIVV
# B1: CcmK1-His (His-tagged CcmK1 from Nostoc sp. PCC 7120) (natural protein, UniProt A0ACD6B949 1-114, looked up)
# chain: MSIAVGMVETLGFPAVVEAADAMVKAARVTLVGYEKIGSGRVTVIVRGDVSEVQASVAAGVESVKRVNGGQVLSTHIIARPHENLEYVLPIRYTEDVEQFRENVNAIRPFGRRP
# notes: CcmK1, carboxysome shell protein, Nostoc sp; GenBank BAB72824.1; synthesized gene in pET-22b(+); The His tag is named for the pull-down only; also called CcmK1 hexamer; source: E. coli BL21(DE3), purified (Ni2+-NTA, gel filtration)
# Legend:
# [1] = target: CcmK1-ΔC12, His-tagged (C-terminus-truncated CcmK1 from Nostoc sp. PCC 7120) (Nostoc sp. PCC 7120); assay: SEC; gel filtration chromatography of CcmK1 or CcmK1-ΔC12 alone (Supplementary Figs. S4 and S5)
# [2] = target: CcmS-His (His-tagged CcmS from Nostoc sp. PCC 7120) (Nostoc sp. PCC 7120); assay: MST; His-tagged CcmS labelled with dye as target at 0.25 μM; non-labelled ligand in 2-fold steps, 16 capillaries; Monolith NT.115, 25 °C, 60% excitation power
# [3] = target: the molecule itself; assay: SEC; gel filtration chromatography of CcmK1 or CcmK1-ΔC12 alone (Supplementary Figs. S4 and S5)
# [4] = target: T2, CcmS-His (His-tagged CcmS from Nostoc sp. PCC 7120) (Nostoc sp. PCC 7120, UniProt A0ACD6B954 1-142, dye label on the His tag in the MST assays); assay: MST; His-tagged CcmS labelled with dye as target at 0.25 μM; non-labelled ligand in 2-fold steps, 16 capillaries; Monolith NT.115, 25 °C, 60% excitation power; details: both partners purified
# T2 construct: CcmS, Nostoc sp; ccmS encodes a protein of 142 amino acids; GenBank BAB73249.1; synthesized gene in pET-22b(+); also called CcmS dimer; source: E. coli BL21(DE3), purified (Ni2+-NTA, gel filtration)
# [5] = target: B1; assay: SEC + native gel or EMSA; molecular mass of the CcmS/CcmK1 complex by gel filtration chromatography and Native-PAGE (Supplementary Figs. S3B and S5A); details: both partners purified
# [6] = target: the molecule itself; assay: crystal structure; CcmS mixed with CcmK1-C15 at a molar ratio of 1:10, space group P41212, 1.67 Å; 0.2 M lithium sulfate, 0.1 M Tris pH 8.5, 1.26 M ammonium sulfate, 18 °C
# [7] = target: T1, CcmS-His (His-tagged CcmS from Nostoc …); assay: MST
molecule,measurement,setting,value
"CcmK1-ΔC12, His-tagged (C-terminus-truncated CcmK1 from Nostoc sp. PCC 7120) (domain or fragment)",stoichiometry N,[1],6
CcmK1-C12 (12-amino acid C-terminal peptide of CcmK1),Kd,[2],41.5 µM
B1,stoichiometry N,[3],6
same,Kd,[4],34.5 µM
"CcmS from Nostoc sp. PCC 7120 (as used for crystallization, Native-PAGE and gel filtration; tag not told) (natural protein, UniProt A0ACD6B954 1-142, looked up, CcmS, Nostoc sp; ccmS encodes a protein of 142 amino acids; GenBank BAB73249.1; crystal structures PDB 8ZLH (alone) and 8ZLZ (with CcmK1-C15); also called CcmS dimer; purified CcmS; source: E. coli BL21(DE3), purified (Ni2+-NTA or Strep-tag XT, gel filtration)) MMFGSTKPESGDSKWRSQLDRFVKENQQDLAALFWGLWLENGDSQGTIGIDLQPTPHFVYCPKDAVEKLNNNVENRLQELLGIIEHNQPEIEVLMIGIGKGEIKLIQFAPEPPPPVCFEQVGKDIDGLLELLEQRMSGEIVV",stoichiometry N,[5],2 CcmS dimers per CcmK1 hexamer
same,stoichiometry N,[6],2
FRENVNAIRPFGARP [CcmK1-C15 R112A peptide],Kd,[7],101 µM

# Source: publication PMC11635287, “Molecular interactions of the chaperone CcmS and carboxysome shell protein CcmK1 that mediate β-carboxysome assembly” (Plant Physiology, 2024)
